Positions count from the first letter of the chain named.

The values that follow come from paper PMC2997501, “Different Residues on the Surface of the Methanothermobacter thermautotrophicus MCM Helicase Interact with Single- and Double-Stranded DNA” (Archaea, 2010).

In one data set the target is T1, MCM Q176A (Methanothermobacter thermautotrophicus, UniProt O27798 1-666, Q176A).
T1 sequence: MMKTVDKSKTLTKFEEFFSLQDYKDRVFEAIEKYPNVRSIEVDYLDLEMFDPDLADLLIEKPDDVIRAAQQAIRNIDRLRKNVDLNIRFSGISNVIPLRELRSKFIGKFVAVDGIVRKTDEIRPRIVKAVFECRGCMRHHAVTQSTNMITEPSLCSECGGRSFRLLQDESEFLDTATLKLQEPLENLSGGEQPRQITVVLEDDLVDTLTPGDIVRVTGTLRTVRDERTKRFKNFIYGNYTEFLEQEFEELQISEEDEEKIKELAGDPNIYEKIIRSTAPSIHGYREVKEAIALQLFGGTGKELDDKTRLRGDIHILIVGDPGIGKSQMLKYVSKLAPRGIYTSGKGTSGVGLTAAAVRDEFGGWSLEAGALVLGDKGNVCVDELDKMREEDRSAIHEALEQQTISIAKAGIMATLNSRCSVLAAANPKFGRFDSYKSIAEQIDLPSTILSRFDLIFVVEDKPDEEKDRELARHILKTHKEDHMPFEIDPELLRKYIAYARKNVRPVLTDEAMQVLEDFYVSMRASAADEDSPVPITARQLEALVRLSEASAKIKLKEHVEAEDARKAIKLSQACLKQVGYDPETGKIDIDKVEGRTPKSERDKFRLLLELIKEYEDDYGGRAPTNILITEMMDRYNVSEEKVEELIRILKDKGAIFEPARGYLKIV
The experiment in a line: filter binding; 10 mM Mg2+, no ATP; 25 mM Hepes-NaOH pH 7.5, 2 mM DTT, 10 mM MgCl2, 100 ug/ml BSA, 50 fmol 32P-DNA in 20 ul, 10/30/90 nM MCM monomer (25 nM for the ATP test), 60 C, 10 min; nitrocellulose filter washed with 20 mM Tris-HCl pH 7.5. The conditions noted are these: protein: recombinant; tags: C-terminal His6; chain copies: 6; label: 32P (T4 PNK, 5' end); blunt.

Data set [1] addresses T2, MCM P210G (Methanothermobacter thermautotrophicus, UniProt O27798 1-666, P210G).
T2 sequence: T1 sequence with A176Q, P210G
The data set is described as above. To be noted: protein: recombinant; tags: C-terminal His6; chain copies: 6; label: 32P (T4 PNK, 5' end); blunt.

The target in the next data set is T3, MCM G218A (Methanothermobacter thermautotrophicus, UniProt O27798 1-666, G218A).
T3 sequence: T1 sequence with A176Q, G218A
The data set is described as above. The conditions noted are these: protein: recombinant; tags: C-terminal His6; chain copies: 6; label: 32P (T4 PNK, 5' end); blunt.

In data set [2] the target is T4, MCM G211A (Methanothermobacter thermautotrophicus, UniProt O27798 1-666, G211A).
T4 sequence: T1 sequence with A176Q, G211A
The data set is described as above. To be noted: protein: recombinant; tags: C-terminal His6; chain copies: 6; label: 32P (T4 PNK, 5' end); blunt.

The target of a further data set is T5, MCM PG210,211GA (Methanothermobacter thermautotrophicus, UniProt O27798 1-666, P210G;G211A).
T5 sequence: T1 sequence with A176Q, P210G, G211A
The experiment in a line: filter binding; 10 mM Mg2+, no ATP; better than wild-type; 25 mM Hepes-NaOH pH 7.5, 2 mM DTT, 10 mM MgCl2, 100 ug/ml BSA, 50 fmol 32P-DNA in 20 ul, 10/30/90 nM MCM monomer (25 nM for the ATP test), 60 C, 10 min; nitrocellulose filter washed with 20 mM Tris-HCl pH 7.5. The conditions noted are these: protein: recombinant; tags: C-terminal His6; chain copies: 6; label: 32P (T4 PNK, 5' end).

Data set [3] deals with T2, MCM P210G. The description is as above. To be noted: protein: recombinant; tags: C-terminal His6; chain copies: 6; label: 32P (T4 PNK, 5' end).
Data set [4] deals with T4, MCM G211A. The description is as above. The conditions noted are these: protein: recombinant; tags: C-terminal His6; chain copies: 6; label: 32P (T4 PNK, 5' end).

B1: 49-mer dsDNA (dsDNA)
DNA 1: GCAGATAACAGTTGTCCTGGAGAACGACCTGGTTGACACCCTCACACCC
DNA 2: GGGTGTGAGGGTGTCAACCAGGTCGTTCTCCAGGACAACTGTTATCTGC
As to B1, the binding signal in the data set with MCM Q176A was approximately 50 % reduction vs wild-type; with MCM P210G [1], approximately 50 % reduction vs wild-type; in the data set with MCM G218A, approximately 25 % reduction vs wild-type; in the data set with MCM G211A [2] it was approximately 50 % reduction vs wild-type.

With GCAGATAACAGTTGTCCTGGAGAACGACCTGGTTGACACCCTCACACCC (ssDNA) [49-mer ssDNA], the binding result with MCM PG210,211GA, with MCM P210G [3] and with MCM G211A [4] was “binds” in each case.
